Each block holds one binder with its values, some of them ahead of it.
Legend:
[1] = biological target: cullin 2 (endogenous, M1 cells) (murine, UniProt Q9D4H8 1-745); assay: anti-FLAG affinity column from unstimulated M1 cells, FLAG peptide elution, Western blot
Excerpt: (§1) The inventors passed lysates from 10^9 unstimulated M1 cells expressing FLAG-tagged SOCS-1 through an anti-FLAG affinity column which was then eluted with FLAG peptide. The eluate was then subjected to SDS-PAGE and the proteins were Western blotted. The blot was then probed with anti-FLAG antibodies to confirm the presence of SOCS-1 and with a range of antibodies against proteins thought to interact with SOCS-1 (FIG. 7). It can be seen that SOCS-1 is capable of forming a complex with elongin B and elongin C, cullin 2, as well as JAK1 and gp130. To determine whether proteins in this complex interact directly or indirectly with SOCS-1, or whether all the proteins can be found together in a single complex, or whether separate complexes are, for example, formed between SOCS-1, JAK-1 and gp130 on one hand and between SOCS-1, elongin B and C and cullin-2, is addressed in part by performing the primary immunoprecipitation using a different antibody.

[2] = biological target: JAK1 (endogenous, M1 cells) (murine, UniProt P52332 1-1153); assay: as above
JAK1 (endogenous, M1 cells), sequence (P52332 whole entry): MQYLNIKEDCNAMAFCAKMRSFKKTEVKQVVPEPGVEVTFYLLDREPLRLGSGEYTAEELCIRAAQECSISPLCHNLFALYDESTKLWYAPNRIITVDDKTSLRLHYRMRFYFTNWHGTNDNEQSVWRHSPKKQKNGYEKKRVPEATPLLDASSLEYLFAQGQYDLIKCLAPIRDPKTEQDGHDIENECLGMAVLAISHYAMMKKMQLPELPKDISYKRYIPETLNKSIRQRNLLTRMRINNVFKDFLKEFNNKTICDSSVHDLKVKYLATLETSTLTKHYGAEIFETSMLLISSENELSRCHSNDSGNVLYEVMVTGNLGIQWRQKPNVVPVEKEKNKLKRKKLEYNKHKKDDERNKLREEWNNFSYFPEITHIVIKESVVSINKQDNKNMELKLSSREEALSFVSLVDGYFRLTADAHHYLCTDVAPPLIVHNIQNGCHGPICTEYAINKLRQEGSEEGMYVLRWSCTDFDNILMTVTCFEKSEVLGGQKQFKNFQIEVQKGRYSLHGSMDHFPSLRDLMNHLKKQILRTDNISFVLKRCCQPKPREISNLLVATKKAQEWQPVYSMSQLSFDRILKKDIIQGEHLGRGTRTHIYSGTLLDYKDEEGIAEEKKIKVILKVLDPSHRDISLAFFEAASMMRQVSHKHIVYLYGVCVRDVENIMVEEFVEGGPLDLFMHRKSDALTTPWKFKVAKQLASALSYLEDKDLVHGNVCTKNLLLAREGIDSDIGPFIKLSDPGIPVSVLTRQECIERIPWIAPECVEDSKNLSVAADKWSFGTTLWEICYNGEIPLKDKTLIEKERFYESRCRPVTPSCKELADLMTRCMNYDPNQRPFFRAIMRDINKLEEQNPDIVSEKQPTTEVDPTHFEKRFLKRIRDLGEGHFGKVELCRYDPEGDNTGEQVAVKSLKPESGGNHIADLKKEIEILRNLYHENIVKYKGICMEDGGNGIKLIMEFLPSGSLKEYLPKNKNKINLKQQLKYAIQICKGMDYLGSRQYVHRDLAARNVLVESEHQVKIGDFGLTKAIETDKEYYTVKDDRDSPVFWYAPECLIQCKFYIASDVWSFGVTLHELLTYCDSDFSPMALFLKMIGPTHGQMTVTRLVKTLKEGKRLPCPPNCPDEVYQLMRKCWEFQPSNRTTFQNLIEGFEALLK
Excerpt: as §1

[3] = biological target: T1, gp130 (endogenous, M1 cells) (murine, UniProt Q00560 23-917); assay: as above
T1 sequence (looked up): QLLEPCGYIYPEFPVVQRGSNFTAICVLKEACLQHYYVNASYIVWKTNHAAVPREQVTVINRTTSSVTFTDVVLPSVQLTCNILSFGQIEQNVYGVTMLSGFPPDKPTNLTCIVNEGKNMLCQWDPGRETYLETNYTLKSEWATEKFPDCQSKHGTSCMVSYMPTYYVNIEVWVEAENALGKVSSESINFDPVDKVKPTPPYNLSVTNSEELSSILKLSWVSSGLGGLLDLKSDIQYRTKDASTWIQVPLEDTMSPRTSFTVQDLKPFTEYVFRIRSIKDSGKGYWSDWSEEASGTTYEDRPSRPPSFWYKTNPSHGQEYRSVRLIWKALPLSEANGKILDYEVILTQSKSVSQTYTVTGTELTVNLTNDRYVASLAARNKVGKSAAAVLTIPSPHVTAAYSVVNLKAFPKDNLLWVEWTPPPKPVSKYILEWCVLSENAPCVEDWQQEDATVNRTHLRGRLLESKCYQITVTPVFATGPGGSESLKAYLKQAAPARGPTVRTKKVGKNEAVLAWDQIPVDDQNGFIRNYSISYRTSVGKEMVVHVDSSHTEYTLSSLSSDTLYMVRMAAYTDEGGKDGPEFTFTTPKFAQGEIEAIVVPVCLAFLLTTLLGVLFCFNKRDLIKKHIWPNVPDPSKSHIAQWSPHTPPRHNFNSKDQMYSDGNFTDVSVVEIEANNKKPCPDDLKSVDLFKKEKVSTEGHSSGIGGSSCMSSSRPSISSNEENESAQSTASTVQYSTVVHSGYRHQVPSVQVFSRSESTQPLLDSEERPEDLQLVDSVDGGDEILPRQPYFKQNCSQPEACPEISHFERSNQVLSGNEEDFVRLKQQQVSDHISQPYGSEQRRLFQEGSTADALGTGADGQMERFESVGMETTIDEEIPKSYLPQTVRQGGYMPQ
Excerpt: as §1

[4] = biological target: T2, elongin C (endogenous, murine M1 cells) (murine, UniProt P83940 1-112); assay: anti-FLAG M2 immunoprecipitation from M1 cells, FLAG peptide elution, Western blot
T2 construct: Endogenous protein from cell lysate; present together with elongin B; also called 15 kDa band
Procedure: FIG. 2 is a photographic representation showing competition of SOCS-1 SOCS box interaction with elongin C. Biotinylated SOCS-1 SOCS box peptide was immobilized on streptavidin-agarose resin and used to affinity purify interacting proteins from M1 cellular extracts in the presence (+) or absence (–) of […] competing non-biotinylated SOCS box peptides. Proteins were separated by SDS-PAGE on a 4–15% w/v acrylamide gel, and bands were visualized by silver staining. Soluble SOCS box peptides corresponding to SOCS-1, ASB-2 and WSB-2 prevented binding of elongin C to immobilized SOCS-1 SOCS box FIG. 3 is a photographic representation showing interaction of SOCS-1 with endogenous elongins B and C. Cellular extracts from M1 cells stably expressing either full-length SOCS-1 or SOCS-1 lacking SOCS box (both proteins were N-terminally FLAG-tagged) were incubated with anti-FLAG antibody M2 resin and bound cellular proteins were eluted from the columns with FLAG peptide as described in Materials and Methods. Lanes 1–3 correspond to column eluates 3 to 5 from M1 cells expressing full-length SOCS-1 and lanes 4–6 correspond to column eluates 3 to 5 from M1 cells expressing SOCS-1 lacking SOCS box. The panels from top to bottom correspond to Western blot analyses by anti-FLAG, anti-elongin C, anti-elongin B, and a mixture of anti-elongin B and anti-elongin C, respectively. […]

[5] = biological target: T3, FLAG-tagged SSB-1 truncated form lacking only the SOCS box (mouse, UniProt Q9D5L7 1-231, limits assumed); assay: co-immunoprecipitation with anti-myc from transfected 293T cells, Western blot with anti-FLAG
T3 construct: domain: SSB-1 lacking only the SOCS box; Transiently expressed in 293T cells; also called truncated form of SSB-1 lacking only the SOCS box
T3 sequence: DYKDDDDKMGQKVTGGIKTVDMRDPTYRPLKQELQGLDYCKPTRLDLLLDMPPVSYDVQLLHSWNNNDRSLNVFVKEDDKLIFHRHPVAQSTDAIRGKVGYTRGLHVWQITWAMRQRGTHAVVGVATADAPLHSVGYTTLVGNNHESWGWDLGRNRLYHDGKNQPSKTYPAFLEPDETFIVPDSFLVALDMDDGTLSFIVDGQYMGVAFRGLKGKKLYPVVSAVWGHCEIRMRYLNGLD
Excerpt: To further confirm the generality of this interaction for other proteins containing a SOCS box, 293T fibroblasts were transfected with N-terminally FLAG-tagged WSB-2 or SSB-1 along with elongin B containing a FLAG epitope or elongin C containing a myc epitope.

[6] = biological target: T4, GST (glutathione-S-transferase control) (UniProt P08515 1-218 = GST, covalently coupled to NHS-activated Sepharose resin); assay: GST-Sepharose pull-down from M1 cell lysate, Coomassie gel and Western blot
T4 construct: also called GST-Sepharose; GST control
T4 sequence (P08515 whole entry): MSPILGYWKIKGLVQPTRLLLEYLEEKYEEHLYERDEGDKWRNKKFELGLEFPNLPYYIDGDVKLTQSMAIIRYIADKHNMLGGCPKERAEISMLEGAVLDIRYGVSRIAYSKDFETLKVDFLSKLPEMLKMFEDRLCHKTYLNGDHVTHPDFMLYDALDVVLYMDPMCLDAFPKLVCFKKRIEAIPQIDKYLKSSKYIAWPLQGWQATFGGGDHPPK
Procedure: M1 cells (2 ×10^10) were lysed on ice for 30 min in 100 ml of lysis buffer supplemented with protease inhibitors (Complete Cocktail tablets; Boehringer Mannheim, Mannheim, Germany), 1 mM PMSF, 1 mM Na_3VO_4 and 1 mM NaF. The total cell lysate was centrifuged at 15,000 rpm (SS34 rotor) for 15 min at 4° C. and the clarified supernatant pre-incubated with 1 ml of GST-Sepharose resin for 2 h at 4° C. Half the GST-Sepharose-depleted M1 cell lysate was incubated with 1 ml of GST-SOCS-1 SOCS box- and the other half with GST-SOCS-3 SOCS box-Sepharose resin for 2 h at 4° C. The affinity resins were washed with 40 ml of lysis buffer and then eluted with 8×0.5 ml of elation buffer. Eluates were concentrated to ~40 μl, mixed with 15 μl of 4×SDS sample buffer containing 0.4 M DTT and resolved on a 14% polyacrylamide gel (Novex). The gel was stained for 5 min with 0.1% w/v Coomassie blue in 50% w/v methanol and destained in 12% w/v methanol and 7% w/v acetic acid.
Isolated SOCS box sequences were used as affinity reagents to identify interacting proteins in cell lysates. […] (GST) fusion proteins containing the SOCS box sequences from SOCS-1 or SOCS-3 were coupled to Sepharose beads and used as affinity resins to bind proteins from M1 cell lysates. […]

cullin 2 (endogenous, M1 cells), sequence (Q9D4H8 whole entry): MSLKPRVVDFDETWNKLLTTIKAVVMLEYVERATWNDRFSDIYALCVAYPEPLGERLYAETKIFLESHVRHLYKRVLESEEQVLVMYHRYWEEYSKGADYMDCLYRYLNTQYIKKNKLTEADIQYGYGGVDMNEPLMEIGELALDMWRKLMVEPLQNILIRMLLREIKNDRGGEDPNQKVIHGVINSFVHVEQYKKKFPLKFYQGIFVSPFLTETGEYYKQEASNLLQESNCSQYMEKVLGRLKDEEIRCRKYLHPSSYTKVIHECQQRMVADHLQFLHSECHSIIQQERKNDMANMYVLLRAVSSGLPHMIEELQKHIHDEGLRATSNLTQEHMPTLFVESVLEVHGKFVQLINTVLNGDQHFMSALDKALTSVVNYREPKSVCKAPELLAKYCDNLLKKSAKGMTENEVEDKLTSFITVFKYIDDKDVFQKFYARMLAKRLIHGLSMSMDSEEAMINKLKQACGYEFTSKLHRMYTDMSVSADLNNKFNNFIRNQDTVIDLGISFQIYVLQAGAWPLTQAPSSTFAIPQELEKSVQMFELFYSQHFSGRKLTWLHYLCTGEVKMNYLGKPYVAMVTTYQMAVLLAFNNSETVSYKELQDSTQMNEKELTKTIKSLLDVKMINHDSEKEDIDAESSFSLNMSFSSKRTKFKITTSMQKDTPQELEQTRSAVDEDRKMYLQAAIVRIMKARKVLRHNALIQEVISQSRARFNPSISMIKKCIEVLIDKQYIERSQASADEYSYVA

- binding result [5]: no binding
B3: elongin B containing a FLAG epitope (other, mouse)
chain: DYKDDDDKMDVFLMIRRHKTTIFTDAKESSTVFELKRIVEGILKRPPEEQRLYKDDQLLDDGKTLGECGFTSQTARPQAPATVGLAFRADDTFEALRIEPFSSPPELPDVMKPQDSGGSANEQAVQ
notes: Transiently expressed in 293T cells; also called FLAG-elongin B

- binding result [6]: no binding
B4: elongin B (endogenous, murine M1 cells) (other, UniProt P62869 1-118, looked up)
chain: MDVFLMIRRHKTTIFTDAKESSTVFELKRIVEGILKRPPEEQRLYKDDQLLDDGKTLGECGFTSQTARPQAPATVGLAFRADDTFEALRIEPFSSPPELPDVMKPQDSGGSANEQAVQ
notes: Endogenous protein from cell lysate; also called 18 kDa band

More lines, now with the values behind:

B1: N-terminally FLAG-tagged full-length SOCS-1 (other, mouse)
chain: DYKDDDDKMVARNQVAADNAISPAAEPRRRSEPSSSSSSSSPAAPVRPRPCPAVPAPAPGDTHFRTFRSHSDYRRITRTSALLDACGFYWGPLSVHGAHERLRAEPVGTFLVRDSRQRNCFFALSVKMASGPTSIRVHFQAGRFHLDGSRETFDCLFELLEHYVAAPRRMLGAPLRQRRVRPLQELCRQRIVAAVGRENLARIPLNPVLRDYLSSFPFQI
notes: Stably expressed in M1 cells; also called FLAG-tagged SOCS-1; intact SOCS-1
- binding result [1]: binds
- binding result [2]: binds
- binding result [3]: binds
- binding result [4]: binds

B2: elongin C containing a myc epitope (other, mouse)
chain: DQKLISEEDLMDGEEKTYGGCEGPDAMYVKLISSDGHEFIVKREHALTSGTIKAMLSGPGQFAENETNEVNFREIPSHVLSKVCMYFTYKVRYTNSSTEIPEFPIAPEIALELLMAANFLDC
notes: Transiently expressed in 293T cells; also called myc-elongin C
- binding result [5]: no binding

Source: patent US7078174 (WALTER AND ELIZA HALL INSTITUTE OF MEDICAL RESEARCH, dated 2006)
